Experimental findings from patent publication US12162911B2, “Pulmonary administration of pyocins for treating bacterial respiratory infections” (priority 2014, dated 2024) are described below.

One assay has as its system P. aeruginosa P8. The assay is described as follows: Mouse model of acute lung infection, P. aeruginosa P8. It is filed as in vivo, Pseudomonas aeruginosa. The conditions noted are these: for Lowest active concentration tested: lowest concentration tested with which the treated mice survived to 24 h; for Corresponding molarity: molarity of lowest active concentration tested. The procedure: Study design. […] For all experiments 6 week-old, female, murine pathogen free C57/BL6 mice weighing 15-21 g were used (Charles Rivers Laboratories, UK). All mice received food and water ad libitum and were housed in groups during the experiments. Power calculations were used to predetermine sample size (n=6, for all treatment experiments). Mice were culled when required as determined by a scoring system or culled at the pre-determined 24 h time point. All mice, including outliers were included in the statistical analysis. Experiments were either carried out once only or repeated once (defined for each experiment).
(§1) Model of acute lung infection. Female C57/BL6 mice were inoculated intranasally with 25 μl of bacterial culture containing approximately 10^7 CFU of the selected P. aeruginosa strain^36. Antibiotic treatments were administered at either 6 h pre-infection or 1 h post-infection and were administered only once. Pyocins or tobramycin dissolved in PBS were administered via intranasal administration as described above. Two different end-points were used in these experiments. In order to determine a reduction in the bacterial load of the lungs compared to the untreated controls, all mice in the experiment were culled by carbon dioxide asphyxiation at the same time; 4-6 h post infection. To determine if mice could survive infection after pyocin or tobramycin treatment, mice were monitored closely, culled by carbon dioxide asphyxiation when required as determined by a scoring system or culled at the pre-determined 24 h time point. Uninfected mice, treated with pyocins, were used as controls in the first series of experiments in order to ensure no adverse effects from pyocin treatment. These controls were stopped in later experiments in order to reduce the number of animals used, once it was clear that the pyocins were not harmful. For CFU determination, lungs were removed aseptically and kept on ice in 750 μl of PBS until homogenised. Serial 10-fold dilutions of the homogenised lung were plated on Pseudomonas selective agar (20 g peptone, 1.5 g K2HPO4, 1.5 g MgSO4·7H2O, 10 ml glycerol, 15 g agar, 0.025 g Irgasan per litre) and incubated at 37° C. for 24 h and then room temperature for 24 h before the colonies were counted.

In another assay the test system is P. aeruginosa PA01. The assay is described as follows: Mouse model of acute lung infection, P. aeruginosa PA01. The format is in vivo, Pseudomonas aeruginosa. The procedure: as §1, with “Uninfected mice, treated with pyocins, were used as controls in the first series of experiments in order to ensure no adverse effects from pyocin treatment. These controls were stopped in later experiments in order to reduce the number of animals used, once it was clear that the pyocins were not harmful. For CFU determination, lungs were removed aseptically and kept on ice in 750 μl of PBS until homogenised.” left out
A similar experiment was performed using pyocin SD2. […] The bacterial load of the lungs was determined and control mice had approx 2×10^5 CFU/lung, 6 h after infection.

Assay [1] has as its system P. aeruginosa P5 (mucoid). The experiment in a line: Mouse model of acute lung infection, P. aeruginosa P5. It is filed as in vivo, Pseudomonas aeruginosa. As to the method: as §1
(§2) Since strains of P. aeruginosa are phenotypically diverse, we tested the efficacy of the pyocins against three additional isolates: P. aeruginosa P17 and P. aeruginosa P5 (mucoid), both from cystic fibrosis patients and P. aeruginosa E2, an environmental isolate. Pyocin S2 was not active against P. aeruginosa P5 or P. aeruginosa E2 in vitro therefore was not used to treat these strains in vivo and similarly pyocin L1 was not used against P. aeruginosa P17. […] Lung homogenates from P. aeruginosa E2-infected AP41-treated mice contained high levels of viable bacteria, reduced only 10-fold relative to control mice (Table 1). […] Thus, pyocins show strong efficacy against diverse strains of P. aeruginosa with pyocin S5 treatment displaying the largest effect on reducing bacterial load.

Another assay has as its system P. aeruginosa E2. The experiment in a line: Mouse model of acute lung infection, P. aeruginosa E2. The format is in vivo, Pseudomonas aeruginosa. The procedure:
as §1, §2

Assay [2] concerns P8AP41T. The assay is described as follows: Mouse model of acute lung infection, AP41 tolerant strain P8AP41T. It is filed as in vivo, Pseudomonas aeruginosa. The conditions noted are these: 3 mg ml^−1 1 h post-infection. The procedure: as §1
(§3) In order to determine if pyocin tolerance or resistance was acquired upon pyocin treatment in vivo, viable bacteria recovered from mice that survived infection to the 24 h end-point, in all experiments discussed in this work, were tested for pyocin susceptibility. From these experiments no pyocin resistant colonies were isolated. […] Importantly, sensitivity to pyocins S5 and L1 were unaffected in vitro in this pyocin AP41-tolerant strain (FIG. 3a) and this was also shown to be the case in vivo when mice were infected with P8AP41T.

In assay [3] the test system is P8AP41T. The experiment in a line: Pyocin sensitivity in vitro (spot tests) of strain P8AP41T. The format is cell-based, Pseudomonas aeruginosa. The conditions noted are these: spot tests, FIG. 3a. As to the method:
Pyocin sensitivity assays: overlay spot plate method. Soft agar overlay spot plates were performed using the method of ^35. 150 μl of test strain culture at OD600 nm=0.6 was added to 6 ml of 0.8% soft agar and poured over an LB agar plate. 5 μl of bacteriocin, lung homogenate or blood at varying concentrations was spotted onto the plates and incubated for 24 h at 37° C.
as §3

As to `NC[C@H]1O[C@H](O[C@H]2[C@H](O)[C@@H](O[C@H]3O[C@H](CO)[C@@H](O)[C@H](N)[C@H]3O)[C@H](N)C[C@@H]2N)[C@H](N)C[C@@H]1O` [Tobramycin, tobramycin, reference compound], in the assay on P. aeruginosa P8 (300 μg ml^−1, 1 h post-infection (FIG. 2b)), the survival result was “survived to 24 h”. The “bacterial counts compared to the PBS controls” value in the assay with P. aeruginosa P8 (300 μg ml^−1, 24 h post-infection (FIG. 2b)) is listed as “significantly reduced the bacterial counts”. Besides, in the assay with P. aeruginosa P8, the “Lowest active concentration tested” value was determined as 300 µg/mL and the Corresponding molarity came out at 641 µM.

B1: Pyocin SD2: S-type pyocin, SEQ ID NO: 7; targeting domain binds LPS common polysaccharide antigen (protein, listed as Pseudomonas aeruginosa)
chain: MAVNDYEPGSMVITHVQGGGRDIIQYIPARSSYGTPPFVPPGPSPYVGTGMQEYRKLRSTLDKSHSELKKNLKNETLKEVDELKSEAGLPGKAVSANDIRDEKSIVDALMDAKAKSLKAIEDRPANLYTASDFPQKSESMYQSQLLASRKFYGEFLDRHMSELAKAYSADIYKAQIAILKQTSQELENKARSLEAEAQRAAAEVEADYKARKANVEKKVQSELDQAGNALPQLTNPTPEQWLERATQLVTQAIANKKKLQTANNALIAKAPNALEKQKATYNADLLVDEIASLQARLDKLNAETARRKEIARQAAIRAANTYAMPANGSVVATAAGRGLIQVAQGAASLAQAISDAIAVLGRVLASAPSVMAVGFASLTYSSRTAEQWQDQTPDSVRYALGMDANKLGLTSSVNLSAVAKAGGTVDLPMRLTNEARGNTTTLSVVSTDGVSVPKAAPVRMAAYNATTGLYEVTVPSTTAEAPPLILTWTPASPPGNQNPSSTTPVIPKPVPVYEGAALTPLKTGPESYPGMLLDLNDLIVIFPADSGVKPVYVMLSSPLDSGIFTRRQLQKKFDSHKYDFGLGEKSANNGTLAEFRDKILEHLADPATVEKGTYHSEVNSKVHYNARTNIVVIIGEDGMFVSGWRIEPGTDQYNFYMKNEVL
On to B1, for which the “bacterial load of the lungs” value in the assay on P. aeruginosa PA01 (3 mg ml^−1 1 h post-infection, 24 h post-infection, control approx 2×10^5 CFU/lung at 6 h) is “no colonies or 10”. Besides, the survival entry with P. aeruginosa PA01 (C57/BL6 mice, 3 mg ml^−1 intranasal 1 h post-infection, endpoint 24 h (FIG. 7)) is “survived to the endpoint of the experiment at 24 h”.

B2: Pyocin L1: lectin-like pyocin, SEQ ID NO: 24; receptor believed to be common polysaccharide antigen of LPS (protein, listed as Pseudomonas aeruginosa)
chain: MASSLAPRQVIRDGQFITSPNGKYKLVMQADGNLVLYEDGTKPIWNTTPVGPGAKAVMEFNLNLYNKAGQVAWSSNVYTAYLFEEFKDEAYLNLQDDGDFGIFSDEAKWGSIVLSRPEVGVKNKIIPTGTVMVPGTEYINGNYRLAFQGDGNLVIYQINPQVVIWATYTMGADRAVVQEDGNFVIYKGTTALWHTHTATGMPAYLKFTNTGKLFLSQPTLLWTLKRGSLSKPPKVIPGQHGPLDTTPIWSWPHDYP
With B2, the “mice culled at 6 h post-infection due to the severity of symptoms” value with P. aeruginosa P8 (30 μg ml^−1, six mice) was “three of the six”. Besides, the survival entry in the assay with P. aeruginosa P8 (300 μg ml^−1, endpoint 24 h post-infection) is “survived until the endpoint of the experiment at 24 h post-infection”; with P8AP41T [2] (endpoint 24 h, PBS controls culled 6 h post-infection (FIG. 3b)), “survived until the endpoint of the experiment at 24 h”. The “reduction of bacterial load in lung” value in the assay on P. aeruginosa P8 (3 mg ml^−1 intranasal 1 h post-infection, culled 4.5 h post-infection (FIG. 1c)) was “approximately 20 fold”. The “reduction of bacterial numbers in lung” value in the assay with P. aeruginosa P8 (C57/BL6 mice, 3 mg ml^−1 intranasal 6 h pre-infection, culled 4 h post-infection (FIG. 1a)) is recorded as around 1500 fold. The “Lowest active concentration tested” value in the assay on P. aeruginosa P8 came out at 30 µg/mL. In the assay with P. aeruginosa P8, this molecule showed a Corresponding molarity of 1.06 µM. Moreover, the survival / protection result was “survived until the 24 h endpoint” in assay [1] (pyocin 3 mg ml^−1, endpoint 24 h, infected controls culled at 4.5 h) and “survived until the 24 h endpoint” with P. aeruginosa E2 (pyocin 3 mg ml^−1, endpoint 24 h, infected controls culled at 5.5 h). The “bacterial count in lung, P5” value in assay [1] (pyocin 3 mg ml^−1, treated mice survived to 24 h, no treatment 1.7 × 10^5 CFU/lung) was determined as 40 CFU/lung. Further, the “bacterial count in lung, E2” value in the assay on P. aeruginosa E2 (pyocin 3 mg ml^−1, treated mice survived to 24 h, no treatment 1.5 × 10^5 CFU/lung) is recorded as “No colonies”. In addition, in the assay with P8AP41T [2] (24 h (FIG. 3b)), the “bacterial numbers in lung homogenates” value is on record as “significantly reduced bacterial numbers”. In addition, the “sensitivity of the pyocin AP41-tolerant strain in vitro” value in the assay with P8AP41T [3] is recorded as “unaffected”.
